Reference: the nanobody polyreactivity screen of Harvey et al. (2022)

assay: yeast display, Sf9 membrane polyspecificity reagent, FACS + sequencing; frameworks hold sequencing errors
Procedure, shortened: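 Sorting gates, low and high (top ~1%), were placed on anti-HA fluorescence to track expression and on streptavidin fluorescence to track reagent binding. A clone's polyreactivity label is taken from the gate it came out of. The reagent was 10% biotinylated, detergent-solubilized Sf9 membrane, applied for 1 hour at 4 °C to galactose-induced yeast display cells.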

Row | Sequence | polyreactivity (PSR sort gate)
1 | QVQLVESGGGLVQSGGSLRLSCAASGSTFVSNAMGWYRQAPGKERELFAAINGSGGITYYADSVKGRFTISRDNAKNTVYLQMNSLKPEDTAVYYCAAEYDGPYTWVDYYYHYGYWGQGTEVTVSS | low polyreactivity
2 | QVQLVESGGGLVQAGGSLRLSCAASGITFRFYAMGWYRPAPGKEREFVAAISSRGGRTYYADSVKGRFTISRDNATNTVYLQMNSLKPEDTAVYYCAADFYYRTVATVTSVARYDYWGQGTQVTVSS | high polyreactivity
3 | QVQLVESGGGLVQAGGRLRLSCAASGFILATNAMGWYRQAPGKERELVAAISYSGGSTNYADSVKGRFTISRDNAKNTVYLQMNSLKPEDTAVYYCNAGGTVIWAWYGPVYSWGQGTQVTVSS | low polyreactivity
4 | QVQLVESGGGLVQAGGSLRLSCAASGITFYIYAMGWYRQSPGKERELVATISWSDGRTYYADSVKGRFTISRDNAKNTVYLLMNSLKPEDTAVYYCAADWWYYQFDYEYWGQGTQVTVSS | low polyreactivity
5 | QVQLVESGGGLVQAGGSLRLSCAASGNTFRFYTMGWYRQAPGKERELVAAINSSGRTNYADSVKGRFTISRDNAKNTVYLQMNSLKPEDTAVYYCAADYYQWSSFLGVYEYDYWGQGTQVTVSS | low polyreactivity
6 | QDQLVESGGGIVQAGGSLRLSCAASGRNFILNAMGLYRQAPGKERELVAAITWSGGGTYYADSVKGRFTISRDNAKNTVYLQMNSLKASDSAVYYCNRPAAVGEEDYWGQGTQVTVSS | low polyreactivity
7 | QVQLEESGGGLVQAGGSLRLSCAASVSTFRLYVMGGYRQAPGKERQLVAAIDWSGGSTYYADSVKGRFTISRDNAKNTVYLQMNSLKPEDTAVYYCAADYSVASPDGPDVIYDYWGQGTQVTVSS | low polyreactivity
8 | QVQLVDSGGGLVQAGGSLSLSCAASGSTFVVNAMGWYRQAPGKERELVAAITQSGGSTFYADSVKGRFTISRDNAKNTVYLQMNSLKPEDTAVYYWGQGTQVTVSS | low polyreactivity
9 | QVQLVESGGGLVQAGGSLRLSCAASGITFWGYAMGWYRQAPGKEREFVARINWSGGRTYYAESVKGRFTNSRDNAKNTVYLQMNSLKPEDTAVYYCAATSLIYGYRTYDYWGQGTQVTVSS | high polyreactivity
10 | QVQLVESGGGLVQAGGSLRLSCAASGLIFRKYAMGWYRQAPGKERELVAAISRSGGSTYYADSVKGRFTISRDNAKTTVYLQMNSLKPEDTAVYYGAAQQHYGDGYWGQGTQVTVSS | high polyreactivity
11 | QVQLVESGGGLVQAGGSLRLSCAASGLIFHGYAMGWYRQAPGKERELVAVITKNGGRTYYADSVKGRFTISRDTAKNTVYLQMNSLKPEDTAVYYCATGKNYWRGYEYWGQGTQVTVSS | high polyreactivity
12 | QVQLVESAGGLVQAGGTLRLSCAASGRIIYRYGMGWYRQAPGKERELVASITRGGSTYYADSVKGRFTISRDNAKNTVYLQMNSLKPEDTAVYYCATKSSAGYDYWGQGTQVTVSS | low polyreactivity
13 | QLQLQESGGLVQAGGSLRLSCAASGSISGRNVIGCYRQAPGKEREYVASITDGSSTNYADSVKGRFTISRDNAKNTVYLQMNSLKPKDTAVYYCAAYAQRAKSFGYWGRGTQVTVSS | low polyreactivity
14 | QVQLVESGGGLVQAGGSLRLSCAASGSIFDVNAMGWYRQAPGKQRELVAAISDSGGSTYYADSVKGRFTISRDNAKNTVYLQMNSLKPEDTAVYYCNADWSWYNYYDFDYWGQGTQVTVSS | low polyreactivity
15 | QVQLVESGGGLVQAGGSLRLSCAASGNIFWGNAMGWYRQAPGKERELVAAITSIDSSTYYADSVKGRFTISRDNAKNTVYLQMNSLKPEDTAVYYCAADGDWYGYIWQSDDGYDSWGQGTQVTVSS | low polyreactivity
16 | QVHLVESGGGLVQAGGSLRLSCAASGFTFPHYAMGWYRQAPGKERELVAAISFSGGRTYYADSVKGRFTISRDHSKNTVYVQMNSLKPEDTAVYYCNVPYYSFRELSYYYWGQGTQVTVSS | high polyreactivity
17 | QVQLVESGGGLVQAGGSLRLSCAASGSIFRYYAMGWYRQAPGKERELVAAISQSGTSTYYADSVKGRFTISRDNAKNTVYLQMNSLKPEDTAVYYCAAYPYYDRDYWGQGTQVTVSS | low polyreactivity
18 | QVQLVESGGGLVQAGGSLRLSCAASGSIFKRYAMGWYRQAPGKERELVARISRRGGTYYADSVKGRFTISRDNAKNTVYLQMNSLKPEDTAVYYCNANVIFADNNDRDYWGQGTQVTVSS | low polyreactivity
19 | QVQLVESGGGLVQEGGSLRLSCAASGSTFAYNAKGWYRQAPGKERELVARISSSGDITYDADSVKGRFTISRDNAKNTVYLQMNSLKPEDTAVYYCAKRYLTRYKGYYYWGQGTQVTVSS | high polyreactivity
20 | QVQLVESGGGLVQAGGSLRLSCAASGRTFTPNAMGWYRQAPGKEREFVAAITYSGGSTRYADSVKGRFTISRDNAKNTVYLQMNSLKPEDTAVYYCAKGYFYYVYTEDDGYWGQGTQVTVSS | low polyreactivity
21 | QVQLVESGGGLVQAGGSLRLSCAASGGTFIMYAMGWYRQAPGKERELVASITWSGGRTYYADSVKGRFTISRDNSKNTVYLQMNSLKPEDTAVYYCNTPPSYIMDYWGQGTQVTVSS | low polyreactivity
22 | QVQLVESGGGLVQAGGSLRLSCAASGYTFAGNAMGWYRQATGKERELVAAISRSGGRTYYADSVKGRFTISRDNAKNTVYLQMNSLKPEDTAVYYCAAYFPRTLFEFGYWGQGTQVTVSS | high polyreactivity

Row | Sequence | polyreactivity (PSR sort gate)
23 | QVQLVESGGGLVQAGGSLRISCAASGSIFRYYAMGWYRQAPGKEREFVDSITYRGGRTYYADSVKGRFTISRDNAKNTVYLQMNSLKPEDTAVYYCAARYRVRYYERDYWGQGTQVTVSS | high polyreactivity
24 | QVQLVESGGGLVQAGGSLRLSCAASGSIFSYNGKGWYRQAPGKERELVATISASSVTTYYADSVKGRFTISRDNAKNTVYLQMNSLKPEDTAVYYCARDAYSVYYYVFLHWEYDYWGQGTQVTVSS | high polyreactivity
25 | QVQLVESGGGLVQAGGSLRISCAASGSIFGYYAMGWYRQAPGKERELVAVITWNTGNTYYADSVKGRFTISRDNAKNTVYLQMNSLKPEDNAVYYCAADQTGWGDTYDYWGQGTQVTVSS | low polyreactivity
26 | QVQLVESGGGIVQAGGSLRLICAASGFIFEFNVMGWYRQSPGKERQLVAAISRSGGSTYYADSVKGRFTISRDNAKNTVYLQMISLKPEDSAVYYCAARSYRSGTHGYNYWGQGTQVTVSS | high polyreactivity
27 | QVQLVESGGCLVQAGGSLRLSCAASGFTFPGNAMGWYRQAPGKERELVAAMSASGGKTYYADSVKGRFTISRDNAKNTVYLQMNSLKPEDTAVYYCAAVVAFATGTYYYWGQGTQVTVSS | high polyreactivity
28 | QVQLVESGGGLVQAGGSLRLSCAASVSIFYPYAMGWYRQAPGKERELVAAIRWSGGRTYYADSVKGRFTISRDNAKNTVYLQMNSLKPEDTAVYYCAADGQVSGYDYWGQGTQVTVSS | high polyreactivity
29 | QVQIVESGGGLVQAGGSLRLSCAASGITFHDYAMGWDRQEPGQERELVATIRSSTYYADSVKGRFTISRDTAKNTVYLQMNSLKTEDTAVYYCNVRLSYSYISPSDWNFDYWGQGTQVTVSS | low polyreactivity
30 | QDQLVESGGGLVQAGGSLRLSCAASGRTFTRYTMGRYRPAPVKERELVAAISSGGSTTYADSVKGRFTISRDNAKNTVYLQMNSLKPEDTAVYYCAAGLVYRGYRRDYWGQGTQVTVSS | low polyreactivity
31 | QVQLVESGGGLVQAGGSLRLSCAASGRTFYRNVMGWYRQAPGKVRELVAVITSGGRTNYADSVKGRFTISRDNAKNTVYLQMNSLKPEDTAVYSCNTALSSRSNKMYYWGQGTQVTVSS | high polyreactivity
32 | QVQLVESGGGLVQAGGSLRLSCAASGSIFFVYAMGWYRQAPGKERELVAAITWSGGRTYYADSVKGRFTISRDNAKNTVYLQMNSLKPEDTAVYYCAARKYSDYFTPRYYYWGQGTQVTVSS | high polyreactivity
33 | QVQLVESGGGLVQAGGSLRLSCAASGSTFGDNAMGWYRQAPGKERELVAVITSDTSTYYADSVKGRFTISRDNAKNTVYLQMNSLKPEDTAVYYCAADWGGLWFWYEYWGQGTQVTVSS | low polyreactivity
34 | QVQLVESGGGLVQAGGSLRLSCAASGRIFGSNAMGWYRQAPGKERELVATITKNGTSTYYADSVKGRFTISRDNAKNTVYLQMNSLKPEDTAVYYCARAPLRYSSRYEYWGQGTQVTVSS | low polyreactivity
35 | QVQLVESGGGIVQAGGSLRLTCAASGFTFFYNAMGWYRQAPGKERELVAAITTNGGSTYYADSVKGRFTISRDNANNTVYLQMNSLKTEDTAVYYFAAEYGITEYDYWGQGTQVTVSS | low polyreactivity
36 | QVQLVESGGGLVQAGGSLRLSCAASGFIFWYYAMGWYRQAPGKERELVAAINSSGGSTYYADSVKGRFTISRDNAKNTVSLQMNSLKPEDTAVYYCAARAYQRGNYWGQGTQVTVSS | high polyreactivity
37 | RVQLVESGGGLVQAGGSLRLSCAASGSTFENYAMGWYRQAPGKERELVAAISSGGSTYYADSVKGRFTISRDNAKNTVYLQMNSLKPEDTAVYYCAAELEYWLYGYGYYYWGQGTQVTVSS | high polyreactivity
38 | QVQLVESGGGIVQAGGSLRLSCAASGRIFRLNAMGWYRQAPGKERELVAAISSRAGSTYYADSVKGRFTISRDNAKNTVYLQMNSLKPEDTAVYYCAARTYSSRLGRDSDYWGQGTQVTVSS | high polyreactivity
39 | QVQLVESGGGLVQAGGSLRLSCAASGLISRRNAMGWYRQAPGKERELVAAISTGSSTNYADSVKGRFTISRDNAKNTVYLQMNSLKPEDTAVYYCAATQYWWSTLGIRDDYWGQGTQVTVSS | low polyreactivity
40 | QVQLVESGGGLVQAGGSLRLSCAASGRIFTRYALGWYRHADGKVRELVATISRGGNTNYADSVKGRFTISRDNANNTVYLQMTSLKPEDTAVYYCAKYPVSRVGGYGYWGQGTQVTVSS | low polyreactivity
41 | QVQRVESGGGLVQAGGSLRLSCAASGGIFDRYAMGWYRPAPGKERELVAVISGSVNTYADSVKGRFTISRDNAKNTVYLQMNSLKPEDTAVYYCATQFEGPSGFNYWGQGTQVTVSS | low polyreactivity
42 | QVQLVESGGGLVQAGGSLRLSWAASGRIFIGYPMGWYRQAPGKERELVAAISRNGDNTYYADSVKGRFTISRDNAKNTVYLQMNSLKPEDSAVYYCAAVAYPREWKLSYEDGSWGYDYWGQGTQVTVSS | low polyreactivity
43 | QVQLVESGGGLVQAGGSLRLICAASGFTFSTNAMGWYRQAPGKERELVAAITKSGGRTYYADSVKGRFTISRDNAKNTVYLQMNSLTPEDTAVYYCAAEVDRKGFYWYYWGQGTQVTVSS | high polyreactivity
